Values belong to the binder of their own block, whether it stands above or below them.
Legend:
4H2585-bH = biological target: T1, 4H2585-bH; assay: two-hybrid library CCNG1;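 note: natural log of median RNA to DNA barcode read ratio; higher means stronger binding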
T1 chain: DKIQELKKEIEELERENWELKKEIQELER

4H264-bH = biological target: T2, 4H264-bH; assay: two-hybrid library CCNG1;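 note: natural log of median RNA to DNA barcode read ratio; higher means stronger binding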
T2 chain: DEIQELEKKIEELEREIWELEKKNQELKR

4H2760-bH = biological target: T3, 4H2760-bH; assay: two-hybrid library CCNG1;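 note: natural log of median RNA to DNA barcode read ratio; higher means stronger binding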
T3 chain: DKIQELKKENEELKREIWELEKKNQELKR

4H2859-bH = biological target: T4, 4H2859-bH; assay: two-hybrid library CCNG1;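 note: natural log of median RNA to DNA barcode read ratio; higher means stronger binding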
T4 chain: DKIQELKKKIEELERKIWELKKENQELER

4H2931-bH = biological target: T5, 4H2931-bH; assay: two-hybrid library CCNG1;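 note: natural log of median RNA to DNA barcode read ratio; higher means stronger binding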
T5 chain: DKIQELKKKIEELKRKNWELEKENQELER

4H3041-bH = biological target: T6, 4H3041-bH; assay: two-hybrid library CCNG1;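 note: natural log of median RNA to DNA barcode read ratio; higher means stronger binding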
T6 chain: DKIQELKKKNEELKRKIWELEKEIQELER

4H3297-bH = biological target: T7, 4H3297-bH; assay: two-hybrid library CCNG1
T7 chain: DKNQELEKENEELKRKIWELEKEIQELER

4H3364-bH = biological target: T8, 4H3364-bH; assay: two-hybrid library CCNG1
T8 chain: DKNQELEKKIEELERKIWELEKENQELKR

4H3381-bH = biological target: T9, 4H3381-bH; assay: two-hybrid library CCNG1
T9 chain: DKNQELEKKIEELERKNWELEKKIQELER

4H349-bH = biological target: T10, 4H349-bH; assay: two-hybrid library CCNG1
T10 chain: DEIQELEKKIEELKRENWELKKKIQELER

4H4001-bH = biological target: T11, 4H4001-bH; assay: two-hybrid library CCNG1
T11 chain: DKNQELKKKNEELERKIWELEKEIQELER

4H477-bN = biological target: T12, 4H477-bN; assay: two-hybrid library CCNG1
T12 chain: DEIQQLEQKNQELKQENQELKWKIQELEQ

4H56-bH = biological target: T13, 4H56-bH; assay: two-hybrid library CCNG1
T13 chain: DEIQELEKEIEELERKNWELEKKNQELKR

4H730-bH = biological target: T14, 4H730-bH; assay: two-hybrid library CCNG1
T14 chain: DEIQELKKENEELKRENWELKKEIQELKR

4H796-bH = biological target: T15, 4H796-bH; assay: two-hybrid library CCNG1
T15 chain: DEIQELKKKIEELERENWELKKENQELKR

4H932-bH = biological target: T16, 4H932-bH; assay: two-hybrid library CCNG1
T16 chain: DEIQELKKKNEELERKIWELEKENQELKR

4H949-bH = biological target: T17, 4H949-bH; assay: two-hybrid library CCNG1
T17 chain: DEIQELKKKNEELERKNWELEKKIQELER

APC2556-AA = biological target: T18, APC2556-AA; assay: two-hybrid library CCmax
T18 chain: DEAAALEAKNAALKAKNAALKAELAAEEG

APC2724-AA = biological target: T19, APC2724-AA; assay: two-hybrid library CCmax; conditions: mean of both orientations
T19 chain: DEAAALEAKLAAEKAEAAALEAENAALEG

APC2811-AA = biological target: T20, APC2811-AA; assay: two-hybrid library CCmax; conditions: mean of both orientations
T20 chain: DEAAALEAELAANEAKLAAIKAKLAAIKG

APC2981-AA = biological target: T21, APC2981-AA; assay: two-hybrid library CCmax; conditions: mean of both orientations
T21 chain: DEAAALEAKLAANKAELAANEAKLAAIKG

APC3265-AA = biological target: T22, APC3265-AA; assay: two-hybrid library CCmax; conditions: mean of both orientations
T22 chain: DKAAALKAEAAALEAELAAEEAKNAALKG

APC3323-AA = biological target: T23, APC3323-AA; assay: two-hybrid library CCmax; conditions: mean of both orientations
T23 chain: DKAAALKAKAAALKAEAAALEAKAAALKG

APC3354-AA = biological target: T24, APC3354-AA; assay: two-hybrid library CCmax; conditions: mean of both orientations
T24 chain: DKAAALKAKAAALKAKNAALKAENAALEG

APC3881-AA = biological target: T25, APC3881-AA; assay: two-hybrid library CCmax; conditions: mean of both orientations
T25 chain: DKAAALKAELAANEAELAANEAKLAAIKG

APC4100-AA = biological target: T26, APC4100-AA; assay: two-hybrid library CCmax; conditions: mean of both orientations
T26 chain: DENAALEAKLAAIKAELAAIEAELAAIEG

APC4336-AA = biological target: T27, APC4336-AA; assay: two-hybrid library CCmax; conditions: mean of both orientations
T27 chain: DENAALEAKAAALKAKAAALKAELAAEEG

APC5009-AA = biological target: T28, APC5009-AA; assay: two-hybrid library CCmax; conditions: mean of both orientations
T28 chain: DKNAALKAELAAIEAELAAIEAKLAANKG

APC542-AA = biological target: T29, APC542-AA; assay: two-hybrid library CCmax; conditions: mean of both orientations
T29 chain: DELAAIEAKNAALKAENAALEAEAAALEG

APC5531-AA = biological target: T30, APC5531-AA; assay: two-hybrid library CCmax; conditions: mean of both orientations
T30 chain: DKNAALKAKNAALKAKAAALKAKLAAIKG

APC6088-AA = biological target: T31, APC6088-AA; assay: two-hybrid library CCmax; conditions: mean of both orientations
T31 chain: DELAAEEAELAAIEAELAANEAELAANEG

APC7524-AA = biological target: T32, APC7524-AA; assay: two-hybrid library CCmax; conditions: mean of both orientations
T32 chain: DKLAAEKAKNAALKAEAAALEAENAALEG

APC8401-AA = biological target: T33, APC8401-AA; assay: two-hybrid library CCmax; conditions: mean of both orientations
T33 chain: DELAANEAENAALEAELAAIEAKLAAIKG

APC8516-AA = biological target: T34, APC8516-AA; assay: two-hybrid library CCmax; conditions: mean of both orientations
T34 chain: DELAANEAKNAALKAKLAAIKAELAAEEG

APC9141-AA = biological target: T35, APC9141-AA; assay: two-hybrid library CCmax; conditions: mean of both orientations
T35 chain: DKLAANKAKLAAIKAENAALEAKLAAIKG

APC9182-AA = biological target: T36, APC9182-AA; assay: two-hybrid library CCmax; conditions: mean of both orientations
T36 chain: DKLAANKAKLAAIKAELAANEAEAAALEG

APC9291-AA = biological target: T37, APC9291-AA; assay: two-hybrid library CCmax; conditions: mean of both orientations
T37 chain: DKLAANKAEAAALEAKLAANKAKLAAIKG

APC9806-AA = biological target: T38, APC9806-AA; assay: two-hybrid library CCmax; conditions: mean of both orientations
T38 chain: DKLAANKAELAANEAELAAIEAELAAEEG

4H470-bN = biological target: T39, 4H470-bN; assay: two-hybrid library CCNG1
T39 chain: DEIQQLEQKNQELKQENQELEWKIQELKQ

interaction score (4H2585-bH): -0.17
interaction score (4H264-bH): -0.751
interaction score (4H2760-bH): 0.55
interaction score (4H2859-bH): 0.965
interaction score (4H2931-bH): -0.336
interaction score (4H3041-bH): 0.00364
interaction score (4H3297-bH): -0.417
interaction score (4H3364-bH): -0.536
interaction score (4H3381-bH): -0.48
interaction score (4H349-bH): 1.63
interaction score (4H4001-bH): -0.0821
interaction score (4H477-bN): -0.435
interaction score (4H56-bH): 0.21
interaction score (4H730-bH): -0.529
interaction score (4H796-bH): -0.9
interaction score (4H932-bH): -1.27
interaction score (4H949-bH): -0.693
Binder: DKIQELKKEIEELERENWELKKEIQELER [4H2585-bH]

interaction score (APC2556-AA): -1.78
interaction score (APC2724-AA): -1.65
interaction score (APC2811-AA): -1.73
interaction score (APC2981-AA): -1.98
interaction score (APC3265-AA): -1.69
interaction score (APC3323-AA): -1.82
interaction score (APC3354-AA): -1.9
interaction score (APC3881-AA): -1.61
interaction score (APC4100-AA): -2.2
interaction score (APC4336-AA): -1.77
interaction score (APC5009-AA): -1.65
interaction score (APC542-AA): -1.72
interaction score (APC5531-AA): -1.7
interaction score (APC6088-AA): -1.75
interaction score (APC7524-AA): -2.09
interaction score (APC8401-AA): -1.48
interaction score (APC8516-AA): -2.01
interaction score (APC9141-AA): -1.94
interaction score (APC9182-AA): -1.74
interaction score (APC9291-AA): -1.79
interaction score (APC9806-AA): -2.15
Binder: DEAAALEAKNAALKAKNAALKAELAAEEG [APC2556-AA]

interaction score (4H470-bN): -0.484
Binder: DEIQQLEQKNQELKQENQELEWKIQELKQ [4H470-bN]

From PMC10397247
